B1: A1 (ssDNA)
DNA: GCAATGGTACGGTACTTCCGTCATCAGCTTGTGATGTGGATGCGAACTGCAAAAGTGCACGCTACTTTGCTAA
B2: A4 (ssDNA)
DNA: GCAATGGTACGGTACTTCCTGTGTTATTGTTATGTTTTTTCAGTGTAGTCAAAAGTGCACGCTACTTTGCTAA

How the values were obtained:
[1] = biological target: β-site APP-cleaving enzyme 1 (BACE1) (UniProt P56817)
[2] = biological target: BACE1 extracellular domain (human, UniProt P56817 46-457); assay: indirect ELISA (plate-coated BACE1); ELISA: BACE1 coated in 1x PBS, 5% BSA block, PBST (0.01% Tween 20, pH 7.4) wash, aptamer 60 min at 37 C; SELEX binding buffer: 1x PBS, 5 mM MgCl2, 0.45% glucose, tRNA, salmon sperm DNA, BSA; FRET: kit Fluorescent Assay Buffer, 37 C, 4 h; conditions: protein: commercial; predicted stem-loop
BACE1 extracellular domain, sequence (P56817 46-457): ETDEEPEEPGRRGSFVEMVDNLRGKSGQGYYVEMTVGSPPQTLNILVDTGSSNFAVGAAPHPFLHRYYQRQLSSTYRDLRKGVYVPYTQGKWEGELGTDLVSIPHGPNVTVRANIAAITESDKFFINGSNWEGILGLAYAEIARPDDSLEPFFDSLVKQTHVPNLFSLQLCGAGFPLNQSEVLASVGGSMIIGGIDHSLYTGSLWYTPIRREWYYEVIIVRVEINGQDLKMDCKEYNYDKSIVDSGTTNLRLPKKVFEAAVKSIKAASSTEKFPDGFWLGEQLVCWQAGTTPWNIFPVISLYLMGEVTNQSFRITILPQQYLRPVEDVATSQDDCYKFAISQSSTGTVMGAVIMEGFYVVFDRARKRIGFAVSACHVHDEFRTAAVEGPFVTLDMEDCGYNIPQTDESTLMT

β-site APP-cleaving enzyme 1 (BACE1), sequence (P56817 46-501): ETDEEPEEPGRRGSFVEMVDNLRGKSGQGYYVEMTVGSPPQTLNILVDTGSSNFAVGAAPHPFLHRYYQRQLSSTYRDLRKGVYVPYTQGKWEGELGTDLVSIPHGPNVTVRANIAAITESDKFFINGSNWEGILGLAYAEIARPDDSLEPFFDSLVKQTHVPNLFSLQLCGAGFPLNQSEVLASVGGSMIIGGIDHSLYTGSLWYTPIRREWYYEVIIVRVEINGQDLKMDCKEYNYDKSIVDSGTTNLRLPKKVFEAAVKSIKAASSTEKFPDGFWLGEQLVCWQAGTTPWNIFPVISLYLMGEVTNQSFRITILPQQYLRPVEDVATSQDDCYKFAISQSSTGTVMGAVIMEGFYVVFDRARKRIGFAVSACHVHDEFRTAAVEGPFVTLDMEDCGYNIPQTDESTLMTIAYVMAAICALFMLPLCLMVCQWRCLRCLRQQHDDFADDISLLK

Molecule | IC50 of inhibition of BACE1 activity (cleavage of a fluorescent substrate, FRET assay of the BACE1 Activity Detection Kit, 4 h, 37°C) [1] | Kd [2]
[Asn670, Sta671, Val672]-Amyloid β/A4 Precursor Protein 770 Fragment 662–675 (from UniProt P05067 662-675) (peptide) | 242 nM | –
B1 | – | 68.6 ± 8.12 nM
B2 | – | 15.3 ± 2.03 nM

From PMC4608735, “Inhibition of BACE1 Activity by a DNA Aptamer in an Alzheimer’s Disease Cell Model”
